Publication PMC2193694 (The Journal of Experimental Medicine, 2002)
Residue numbers refer to the chain shown, from its start. Names may count otherwise.

T1: B7-H2mIg (extracellular domain of human B7-H2 linked to mouse IgG2a Fc portion) (human, UniProt O75144 19-256)
T1 sequence: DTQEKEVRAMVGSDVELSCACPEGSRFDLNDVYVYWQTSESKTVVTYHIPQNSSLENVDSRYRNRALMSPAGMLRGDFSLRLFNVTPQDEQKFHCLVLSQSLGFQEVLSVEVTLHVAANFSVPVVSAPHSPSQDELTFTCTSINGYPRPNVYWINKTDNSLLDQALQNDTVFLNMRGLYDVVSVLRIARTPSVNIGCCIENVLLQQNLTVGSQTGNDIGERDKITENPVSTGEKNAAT

B1: ICOSIg (extracellular domain of human ICOS fused to the CH2-CH3 portion of human IgG1) (Fc fusion)
chain: EINGSANYEMFIFHNGGVQILCKYPDIVQQFKMQLLKGGQILCDLTKTKGSGNTVSIKSLKFCHSQLSNNSVSFFLYNLDHSHANYYFCNLSIFDPPPFKVTLTGGYLHIYESQLCCQLK
B2: ICOSIg mutant K69S (Fc fusion)
chain: B1 chain with K49S
B3: ICOSIg mutant Q49S (Fc fusion)
chain: B1 chain with Q29S
B4: ICOSIg mutant F51S (Fc fusion)
chain: B1 chain with F31S
B5: ICOSIg mutant D64S (Fc fusion)
chain: B1 chain with D44S
B6: ICOSIg mutant D115S (Fc fusion)
chain: B1 chain with D95S
B7: ICOSIg mutant Q50S (Fc fusion)
chain: B1 chain with Q30S
B8: ICOSIg mutant K67S (Fc fusion)
chain: B1 chain with K47S
B9: ICOSIg homologue replacement mutant RP49-52 (ICOS 49-52 replaced by CD28 49-52) (Fc fusion)
chain: B1 chain with Q29R, Q30E, K32R
B10: ICOSIg mutant F114S (Fc fusion)
chain: B1 chain with F94S
B11: ICOSIg mutant F119S (Fc fusion)
chain: B1 chain with F99S

Target: B7-H2mIg (extracellular domain of human B7-H2 linked to mouse IgG2a Fc portion) (human) (UniProt O75144)
Assay: ELISA

Row | Molecule | percentage of B7-H2 binding activity (of ICOSIg) [%]
1 | ICOSIg mutant P117S (from UniProt Q9Y6W8 21-140) (Fc fusion) | < 0.1

Target: T1, B7-H2mIg (extracellular domain of human …)
Assay: ELISA

Row | Molecule | percentage of B7-H2 binding activity (of ICOSIg) [%]
2 | B1 | 100
3 | B2 | 3
4 | B3 | 33
5 | B4 | < 0.1
6 | B5 | 6
7 | B6 | < 0.1
8 | B7 | 6
9 | B8 | < 0.1
10 | B9 | 9
11 | B10 | < 0.1
12 | B11 | < 0.1
